Consider 23 molecules from patent US20200308270A1 (Zymeworks, published 2020).

Positions count from the first letter of the chain named.

The target in assay [1] is T1, human recombinant FcRn (human, UniProt P55899 24-297; P61769 21-119, limits assumed).
T1 construct: also called neonatal receptor
Description: SPR (ProteOn), FcRn immobilized, Mab analyte, pH 5.8.
Description: FcRn affinity determination was carried out as follows. FcRn surface was generated using a GLC sensorchip activated by a 1:10 dilution of the standard BioRad sNHS/EDC solutions injected for 140s at 100 μL/min in the ligand (vertical) direction. Immediately after the activation, 10 microg/mL solution of FcRn in 10 mM NaOAc pH 4.5 was injected in the ligand (vertical) direction at a flow rate of 25 microL/min for 120s until approximately 2000 resonance units (RUs) were immobilized. Remaining active groups were quenched by a 140s injection of 1M ethanolamine at 30 μL/min also in the ligand direction. The running buffer used on the FcRn surface was PBST pH 5.8. The screening of the Mabs for binding to FcRn was performed by injection of purified Mabs in the analyte (horizontal) direction. Firstly, two buffer injections for 30s at 100 microL/min in the analyte (horizontal) direction were used to stabilize the baseline. Five concentrations of a three-fold dilution series of each Mab starting at 100 nM with a blank buffer control were simultaneously injected at 50 microL/min for 120 s with a 10 minute dissociation phase, resulting in a set of binding sensorgrams with a buffer reference. […] Sensorgrams were aligned and double-referenced using the buffer blank injection and interspots, and the resulting sensorgrams were analyzed using ProteOn Manager software v3.1. The double-referenced sensorgrams were fit to the Langmuir binding model.

The target of assay [2] is T2, human recombinant FcgammaR receptor CD32aR (human, UniProt P12318 34-217, limits assumed).
T2 sequence (looked up): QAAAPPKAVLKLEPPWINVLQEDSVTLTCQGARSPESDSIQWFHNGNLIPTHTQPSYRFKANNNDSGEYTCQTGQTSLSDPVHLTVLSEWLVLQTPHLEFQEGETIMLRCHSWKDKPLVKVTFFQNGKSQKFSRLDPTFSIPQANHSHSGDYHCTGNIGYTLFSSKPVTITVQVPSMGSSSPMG
Description: SPR (ProteOn), Mab captured via anti-human Fc, FcgammaR analyte.
Description: (§1) Goat polyclonal anti-human Fc antibody was purchased from Jackson Immuno Research Laboratories Inc. (West Grove, Pa.). […] Human recombinant FcγR receptors: CD16aV, CD32bF, CD32aR, and CD32aH were expressed as constructs containing a His10-tag at the C-terminus and purified by Ni-affinity chromatography followed by His-tag removal and SEC purification.
(§2) FcγR affinity determination was carried out as follows. The screening of Mabs for binding to various FcγR receptors occurred in two steps: an indirect capture of Mab samples onto the anti-human Fc-specific polyclonal antibody surface, followed by the injection of five concentrations of each of FcγR receptors. The anti-human Fc surface was prepared on a GLC sensorchip by amine coupling. GLC sensorchip surface was activated by a 1:10 dilution of the standard BioRad sNHS/EDC solutions injected for 140s at 100 μL/min in the analyte (horizontal) direction. Immediately after the activation, 25 microg/mL solution of anti-human Fc in 10 mM NaOAc pH 4.5 was injected in the analyte direction at a flow rate of 25 microL/min for 240s until approximately 4500 or 2500 resonance units (RUs) were immobilized. Remaining active groups were quenched by a 300s injection of 1M ethanolamine at 30 μL/min also in the analyte direction. Mabs for analysis were indirectly captured onto the anti-human Fc surface by injecting 10 microg/ml solutions in the ligand (vertical) direction at a flow rate of 25 microL/min for 240s. Each of the FcγR receptors was subsequently injected in the analyte (horizontal) direction. Firstly, two buffer injections for 30s at 100 microL/min in the analyte (horizontal) direction were used to stabilize the baseline. Five concentrations of a three-fold dilution series of each of the four FcγR receptors starting at 10 μM with a blank buffer control were then simultaneously injected at 50 microL/min for 120 s with a 3 minute dissociation phase, resulting in a set of binding sensorgrams with a buffer reference. […] Sensorgrams were aligned and double-referenced using the buffer blank injection and interspots, and the resulting sensorgrams were analyzed using ProteOn Manager software v3.1.

Assay [3] has as its target human recombinant FcgammaR receptor CD16aV (human, UniProt P08637 17-208, limits assumed). Described as above.
Description: as §1, §2
Assay [4] deals with T3, recombinant human HER3 (human, UniProt P21860 20-643).
T3 construct: Bought reagent
Description: SPR (ProteOn), Mab captured via anti-human Fc, HER3 analyte.
Description: HER3 affinity determination in Mabs was carried out as follows. The screening of Mabs for binding to HER3 antigen occurred in two steps: an indirect capture of Mabs onto the anti-human Fc-specific polyclonal antibody surface, followed by the injection of five concentrations of HER3. The anti-human Fc surface was prepared on a GLC sensorchip by amine coupling. GLC sensorchip surface was activated by a 1:10 dilution of the standard BioRad sNHS/EDC solutions injected for 140s at 100 pt/min in the analyte (horizontal) direction. Immediately after the activation, 25 microg/mL solution of anti-human Fc in 10 mM NaOAc pH 4.5 was injected in the ligand (vertical) direction at a flow rate of 25 microL/min for 240s until approximately 3000 resonance units (RUs) were immobilized. Remaining active groups were quenched by a 140s injection of 1M ethanolamine at 100 μL/min also in the analyte direction. Mabs for analysis were indirectly captured onto the anti-Fc surface by injecting 20 microg/mL solutions in the ligand (vertical) direction at a flow rate of 25 microL/min for 240s. HER3 was subsequently injected in the analyte (horizontal) direction. Firstly, two buffer injections for 30s at 100 microL/min in the analyte (horizontal) direction were used to stabilize the baseline. […] Sensorgrams were aligned and double-referenced using the buffer blank injection and interspots, and the resulting sensorgrams were analyzed using ProteOn Manager software v3.1. The double-referenced sensorgrams were fit to the Langmuir binding model.

For assay [5], the target named is T3, recombinant human HER3. Description: SPR. A general note: Surface plasmon resonance follows binding to a sensor surface in real time, without labels.
Assay [6] has as its target T4, recombinant human sFas receptor (human, UniProt P25445 17-173, limits assumed).
T4 construct: Bought reagent
T4 sequence (looked up): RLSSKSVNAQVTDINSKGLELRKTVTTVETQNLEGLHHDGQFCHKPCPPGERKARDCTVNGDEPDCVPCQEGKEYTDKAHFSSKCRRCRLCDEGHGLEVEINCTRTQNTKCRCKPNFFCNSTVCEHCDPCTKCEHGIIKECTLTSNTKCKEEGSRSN
Description: SPR (Biacore T200), Fas immobilized, Fab analyte.
Description: Fas affinity determination was carried out as follows. Fas was diluted in 10 mM acetate buffer pH 5.5 and directly immobilized via amine coupling onto a CMS Series S sensor chip. […] The reference flow cell was left empty (ethanolamine blocked) to use as a blank control. Fabs were injected over both the ethanolamine-blocked reference surface and the Fas surface for kinetic analysis using single cycle kinetics. […] Fas surfaces were regenerated using 2 cycles of 10 mM glycine pH 1.5 for 120 s at 30 pt/min to prepare the surfaces for the next injection cycle. At least two mock-buffer injections were performed for each analyte injection to be used for referencing. The resulting single cycle kinetics sensorgrams were analyzed using Biacore T200 BiaEvaluation software version 3.0 and fit to the 1:1 binding model.

Assay [7] concerns the target T5, recombinant human IL-17A (human, UniProt Q16552 20-155, limits assumed).
T5 construct: Bought reagent
Description: SPR (ProteOn), IL-17A immobilized, Mab analyte.
Description: IL-17 affinity determination was carried out as follows. The IL-17A surface was generated using a GLC sensorchip activated by a 1:10 dilution of the standard BioRad sNHS/EDC solutions injected for 140s at 100 pt/min in the ligand (vertical) direction. Immediately after the activation, 1 to 4 microg/mL solution of IL-17A in 10 mM NaOAc pH 4.5 was injected in the ligand (vertical) direction at a flow rate of 25 or 100 microL/min until approximately 75-200 resonance units (RUs) were immobilized. Remaining active groups were quenched by a 140s injection of 1M ethanolamine at 100 μL/min also in the ligand direction. […] Firstly, two buffer injections for 30s at 100 microL/min in the analyte (horizontal) direction were used to stabilize the baseline. […] Sensorgrams were aligned and double-referenced using the buffer blank injection and interspots, and the resulting sensorgrams were analyzed using ProteOn Manager software v3.1. The double-referenced sensorgrams were fit to the Langmuir binding model.

T5 sequence (Q16552 20-155 limits assumed): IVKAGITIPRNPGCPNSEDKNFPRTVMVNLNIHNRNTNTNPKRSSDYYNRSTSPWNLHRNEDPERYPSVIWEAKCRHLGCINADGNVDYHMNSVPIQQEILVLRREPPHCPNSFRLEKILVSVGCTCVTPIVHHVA
Chain of human recombinant FcgammaR receptor CD16aV (P08637 17-208 F176V limits assumed): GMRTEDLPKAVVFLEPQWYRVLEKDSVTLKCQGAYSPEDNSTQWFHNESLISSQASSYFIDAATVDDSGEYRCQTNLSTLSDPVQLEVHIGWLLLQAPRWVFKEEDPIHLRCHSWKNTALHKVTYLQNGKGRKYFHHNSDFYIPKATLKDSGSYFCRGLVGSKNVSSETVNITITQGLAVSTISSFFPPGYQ

B1: H3 wild-type lambda Mab (antibody, human IgG1, lambda)
heavy: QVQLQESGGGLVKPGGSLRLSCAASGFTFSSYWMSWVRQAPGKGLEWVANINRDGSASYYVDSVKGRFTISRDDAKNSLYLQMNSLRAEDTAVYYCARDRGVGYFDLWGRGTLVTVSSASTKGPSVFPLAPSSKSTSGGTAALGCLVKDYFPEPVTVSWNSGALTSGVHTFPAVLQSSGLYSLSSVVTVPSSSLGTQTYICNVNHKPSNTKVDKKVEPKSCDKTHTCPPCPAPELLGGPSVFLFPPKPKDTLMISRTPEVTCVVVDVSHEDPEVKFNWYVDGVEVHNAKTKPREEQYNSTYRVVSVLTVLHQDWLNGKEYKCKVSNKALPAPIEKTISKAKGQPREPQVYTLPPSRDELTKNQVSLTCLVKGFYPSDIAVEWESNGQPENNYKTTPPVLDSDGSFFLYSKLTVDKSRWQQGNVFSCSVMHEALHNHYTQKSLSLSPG
light: QSALTQPASVSGSPGQSITISCTGTSSDVGGYNFVSWYQQHPGKAPKLMIYDVSDRPSGVSDRFSGSKSGNTASLIISGLQADDEADYYCSSYGSSSTHVIFGGGTKVTVLGQPKAAPSVTLFPPSSEELQANKATLVCLISDFYPGAVTVAWKADSSPVKAGVETTTPSKQSNNKYAASSYLSLTPEQWKSHRSYSCQVTHEGSTVEKTVAPTECS
notes: IgG1 Mab format; also called WT
On to B1, for which the Kd amounted to 48.6 nM in assay [1], 3400 nM in assay [2], 1100 nM in assay [3] and 85 nM in assay [4].

B2: H3 designed Vlambda-Ckappa chimeric Mab, design 37 (E83A_D85T) (antibody, human IgG1, kappa, name in Kabat numbering)
heavy: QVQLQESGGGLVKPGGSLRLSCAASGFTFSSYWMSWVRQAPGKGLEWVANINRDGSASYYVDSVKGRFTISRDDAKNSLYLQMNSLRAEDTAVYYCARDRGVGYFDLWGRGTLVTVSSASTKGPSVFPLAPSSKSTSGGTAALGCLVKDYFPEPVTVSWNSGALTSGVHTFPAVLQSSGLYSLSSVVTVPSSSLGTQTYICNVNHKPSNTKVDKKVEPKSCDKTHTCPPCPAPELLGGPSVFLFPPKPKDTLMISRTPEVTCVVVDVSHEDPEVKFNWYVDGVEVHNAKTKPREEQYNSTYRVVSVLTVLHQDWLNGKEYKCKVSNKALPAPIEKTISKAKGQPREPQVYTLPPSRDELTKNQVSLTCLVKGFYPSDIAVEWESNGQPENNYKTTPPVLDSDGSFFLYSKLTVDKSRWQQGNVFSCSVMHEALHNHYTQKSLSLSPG
light: QSALTQPASVSGSPGQSITISCTGTSSDVGGYNFVSWYQQHPGKAPKLMIYDVSDRPSGVSDRFSGSKSGNTASLIISGLQADDAATYYCSSYGSSSTHVIFGGGTKVTVLRTVAAPSVFIFPPSDEQLKSGTASVVCLLNNFYPREAKVQWKVDNALQSGNSQESVTEQDSKDSTYSLSSTLTLSKADYEKHKVYACEVTHQGLSSPVTKSFNRGEC
notes: IgG1 Mab format
For B2, the Kd in assay [1] worked out at 80.2 nM; in assay [2] it was 3400 nM; in assay [3], 1300 nM; in assay [4], 67 nM.

B3: H3 designed Vlambda-Ckappa chimeric Mab, design 26 (E83V_D85T) (antibody, human IgG1, kappa, name in Kabat numbering)
heavy: not shown
light: B2 light with A85V
notes: IgG1 Mab format
In the case of B3, the equilibrium dissociation constant (Kd) in assay [4] is 56 nM.

B4: H3 designed Vlambda-Ckappa chimeric Mab, design 39 (E83A_D85T_T105E_V106I) (antibody, human IgG1, kappa, name in Kabat numbering)
heavy: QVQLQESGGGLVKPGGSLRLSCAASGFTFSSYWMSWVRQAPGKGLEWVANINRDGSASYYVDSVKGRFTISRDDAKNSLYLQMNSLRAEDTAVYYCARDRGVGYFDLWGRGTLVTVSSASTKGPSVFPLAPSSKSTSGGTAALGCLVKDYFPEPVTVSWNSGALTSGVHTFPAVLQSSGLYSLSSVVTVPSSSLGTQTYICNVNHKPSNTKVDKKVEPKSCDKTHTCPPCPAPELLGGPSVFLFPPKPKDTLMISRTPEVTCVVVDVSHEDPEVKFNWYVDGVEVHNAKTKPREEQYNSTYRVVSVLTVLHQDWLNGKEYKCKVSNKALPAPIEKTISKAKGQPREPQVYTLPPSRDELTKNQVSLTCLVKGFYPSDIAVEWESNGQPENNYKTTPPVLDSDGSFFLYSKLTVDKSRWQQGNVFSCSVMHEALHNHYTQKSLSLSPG
light: B2 light with T109E, V110I
notes: IgG1 Mab format
Turning to B4, the Kd stood at 96.7 nM in assay [1], 3100 nM in assay [2], 1400 nM in assay [3] and 61 nM in assay [4].

B5: H3 designed Vlambda-Ckappa chimeric Mab, design 29 (E83V_D85T_T105E_V106I) (antibody, human IgG1, kappa, name in Kabat numbering)
heavy: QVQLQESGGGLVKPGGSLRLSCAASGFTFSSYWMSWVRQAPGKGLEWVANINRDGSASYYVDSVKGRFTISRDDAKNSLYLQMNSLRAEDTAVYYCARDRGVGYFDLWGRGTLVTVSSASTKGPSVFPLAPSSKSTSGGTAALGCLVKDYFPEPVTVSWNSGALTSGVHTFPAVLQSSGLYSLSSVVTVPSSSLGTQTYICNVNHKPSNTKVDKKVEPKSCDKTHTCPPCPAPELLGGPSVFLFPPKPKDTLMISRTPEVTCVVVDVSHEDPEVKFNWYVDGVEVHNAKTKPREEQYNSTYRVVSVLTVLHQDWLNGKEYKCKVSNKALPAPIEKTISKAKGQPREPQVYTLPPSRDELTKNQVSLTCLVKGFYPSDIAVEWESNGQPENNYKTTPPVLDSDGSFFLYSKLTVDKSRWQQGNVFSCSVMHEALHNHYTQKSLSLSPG
light: B2 light with A85V, T109E, V110I
notes: IgG1 Mab format
As to B5, the Kd turned out to be 86.1 nM in assay [1], 4900 nM in assay [2], 1100 nM in assay [3] and 64 nM in assay [4].

B6: H3 designed Vlambda-Ckappa chimeric Mab, design 18 (E83F_D85T_T105E) (antibody, human IgG1, kappa, name in Kabat numbering, V domains shown)
VH: QVQLQESGGGLVKPGGSLRLSCAASGFTFSSYWMSWVRQAPGKGLEWVANINRDGSASYYVDSVKGRFTISRDDAKNSLYLQMNSLRAEDTAVYYCARDRGVGYFDLWGRGTLVTVSS
VL: QSALTQPASVSGSPGQSITISCTGTSSDVGGYNFVSWYQQHPGKAPKLMIYDVSDRPSGVSDRFSGSKSGNTASLIISGLQADDFATYYCSSYGSSSTHVIFGGGTKVEVLR
notes: IgG1 Mab format
Turning to B6, the Kd in assay [4] is 66 nM.

B7: H3 Vlambda-Ckappa chimeric Mab (antibody, human IgG1, kappa)
heavy: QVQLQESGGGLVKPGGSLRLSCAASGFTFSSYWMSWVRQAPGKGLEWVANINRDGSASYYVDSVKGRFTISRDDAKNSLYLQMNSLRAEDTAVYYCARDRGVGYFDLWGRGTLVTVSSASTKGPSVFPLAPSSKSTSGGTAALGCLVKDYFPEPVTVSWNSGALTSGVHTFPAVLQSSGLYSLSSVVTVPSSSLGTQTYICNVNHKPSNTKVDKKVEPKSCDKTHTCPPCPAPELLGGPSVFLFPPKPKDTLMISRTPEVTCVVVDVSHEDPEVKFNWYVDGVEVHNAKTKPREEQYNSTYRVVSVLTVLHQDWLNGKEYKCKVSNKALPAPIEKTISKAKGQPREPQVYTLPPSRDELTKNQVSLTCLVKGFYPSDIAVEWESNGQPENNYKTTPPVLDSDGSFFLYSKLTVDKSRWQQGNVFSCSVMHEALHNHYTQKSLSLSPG
light: B2 light with A85E, T87D
notes: IgG1 Mab format; chimeric light chain without stabilizing substitutions; also called chimera
As to B7, the “fold difference of KD against the wild-type lambda Mab control” value in assay [5] was not above 1.5 fold. Moreover, the Kd in assay [1] stood at 74.6 nM; in assay [2], 4100 nM; in assay [3], 1200 nM; in assay [4] it was 63 nM.

B8: H3 designed Vlambda-Ckappa chimeric Mab, design 34 (E83I_D85T_T105E_V106I) (antibody, human IgG1, kappa, name in Kabat numbering)
heavy: not shown
light: B2 light with A85I, T109E, V110I
notes: IgG1 Mab format
Turning to B8, the Kd in assay [4] is 60 nM.

B9: H3 designed Vlambda-Ckappa chimeric Mab, design 32 (E83I_D85T) (antibody, human IgG1, kappa, name in Kabat numbering)
heavy: not shown
light: B2 light with A85I
notes: IgG1 Mab format
For B9, the Kd in assay [4] worked out at 67 nM.

B10: EP6b_B01 Vlambda-Ckappa chimeric Fab (Fab, V domains shown)
VH: QLQLQESGPGLVKPSETLSLTCTVSGASISANSYYGVWVRQSPGKGLEWVGSIAYRGNSNSGSTYYNPSLKSRATVSVDSSKNQVSLRLTSVTAADTALYYCARRQLLDDGTGYQWAAFDVWGQGTMVTVSS
VL: QSVLTQPPSVSEAPRQTVTISCSGNSSNIGRYPVNWYQQLPGKAPKLLIYSDNLRFSGVPDRFSGSKSGTTASLAIRDLLSEDEADYYCSTWDDTLEGWVFGGGTKVTVLR
notes: Parent chimeric Fab without stabilizing substitutions; also called chimera; VL-CK chimeric Fab
For the molecule B10, the Kd in assay [6] was determined as 0.0512 nM.

B11: EP6b_B01 wild-type lambda Fab (Fab, V domains shown)
VH: B10 VH
VL: B10 VL with R111G
notes: Truncated heavy chain (VH-CH1-upper IgG1 hinge, no His tag) and wild-type lambda light chain; also called WT
On to B11, for which, in assay [6], the Kd worked out at 0.0546 nM.

B12: EP6b_B01 designed Vlambda-Ckappa chimeric Fab, design 26 (E83V_D85T) (Fab, name in Kabat numbering, V domains shown)
VH: B10 VH
VL: B10 VL with E84V, D86T
As to B12, in assay [6], the Kd stood at 0.0486 nM.

B13: EP6b_B01 designed Vlambda-Ckappa chimeric Fab, design 18 (E83F_D85T_T105E) (Fab, name in Kabat numbering, V domains shown)
VH: B10 VH
VL: B10 VL with E84F, D86T, T108E
For the molecule B13, the Kd in assay [6] came to 0.0449 nM.

B14: EP6b_B01 designed Vlambda-Ckappa chimeric Fab, design 29 (E83V_D85T_T105E_V106I) (Fab, name in Kabat numbering, V domains shown)
VH: B10 VH
VL: B10 VL with E84V, D86T, T108E, V109I
In the case of B14, the Kd in assay [6] stood at 0.0479 nM.

B15: EP6b_B01 designed Vlambda-Ckappa chimeric Fab, design 32 (E83I_D85T) (Fab, name in Kabat numbering, V domains shown)
VH: B10 VH
VL: B10 VL with E84I, D86T
As for B15, the Kd in assay [6] was 0.0471 nM.

B16: EP6b_B01 designed Vlambda-Ckappa chimeric Fab, design 37 (E83A_D85T) (Fab, name in Kabat numbering, V domains shown)
VH: B10 VH
VL: B10 VL with E84A, D86T
In the case of B16, the Kd in assay [6] is 0.0492 nM.

B17: EP6b_B01 designed Vlambda-Ckappa chimeric Fab, design 34 (E83I_D85T_T105E_V106I) (Fab, name in Kabat numbering, V domains shown)
VH: B10 VH
VL: B10 VL with E84I, D86T, T108E, V109I
B17: the Kd in assay [6] was found to be 0.0484 nM.

B18: CAT-2200 wild-type lambda Mab (antibody, human IgG1, lambda)
heavy: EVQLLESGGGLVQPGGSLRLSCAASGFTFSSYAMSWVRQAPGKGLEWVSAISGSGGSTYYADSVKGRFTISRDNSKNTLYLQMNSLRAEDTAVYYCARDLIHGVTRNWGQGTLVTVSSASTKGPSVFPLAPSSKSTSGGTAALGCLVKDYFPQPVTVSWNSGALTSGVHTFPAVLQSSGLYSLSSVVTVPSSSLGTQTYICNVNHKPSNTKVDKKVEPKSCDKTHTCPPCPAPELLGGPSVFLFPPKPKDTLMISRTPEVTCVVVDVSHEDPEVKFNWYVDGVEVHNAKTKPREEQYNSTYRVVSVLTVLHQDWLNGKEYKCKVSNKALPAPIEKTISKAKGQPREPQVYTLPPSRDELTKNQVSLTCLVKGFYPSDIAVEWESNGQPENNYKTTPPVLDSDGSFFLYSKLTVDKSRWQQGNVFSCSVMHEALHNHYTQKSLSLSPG
light: NFMLTQPHSVSESPGKTVTISCTRSSGSLANYYVQWYQQRPGSSPTIVIFANNQRPSGVPDRFSGSIDSSSNSASLTISGLKTEDEADYYCQTYDPYSVVFGGGTKLTVLGQPKAAPSVTLFPPSSEELQANKATLVCLISDFYPGAVTVAWKADSSPVKAGVETTTPSKQSNNKYAASSYLSLTPEQWKSHRSYSCQVTHEGSTVEKTVAPTECS
notes: as for B1
Turning to B18, the Kd turned out to be 14.2 nM in assay [1], 2400 nM in assay [2], 1200 nM in assay [3] and 0.027 nM in assay [7].

B19: CAT-2200 designed Vlambda-Ckappa chimeric Mab, design 39 (E83A_D85T_T105E_V106I) (antibody, human IgG1, kappa)
heavy: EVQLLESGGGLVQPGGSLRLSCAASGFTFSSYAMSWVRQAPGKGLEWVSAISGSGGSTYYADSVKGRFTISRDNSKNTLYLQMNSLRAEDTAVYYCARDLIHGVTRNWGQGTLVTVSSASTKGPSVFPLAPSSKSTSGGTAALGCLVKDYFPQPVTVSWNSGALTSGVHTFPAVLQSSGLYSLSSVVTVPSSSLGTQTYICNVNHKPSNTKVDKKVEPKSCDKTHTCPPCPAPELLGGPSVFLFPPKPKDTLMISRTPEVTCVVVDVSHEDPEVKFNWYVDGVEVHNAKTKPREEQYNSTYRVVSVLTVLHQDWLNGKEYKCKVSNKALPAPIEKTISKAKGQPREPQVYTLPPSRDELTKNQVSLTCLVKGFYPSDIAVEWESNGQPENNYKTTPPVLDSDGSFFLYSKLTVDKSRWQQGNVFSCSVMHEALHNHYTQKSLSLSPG
light: NFMLTQPHSVSESPGKTVTISCTRSSGSLANYYVQWYQQRPGSSPTIVIFANNQRPSGVPDRFSGSIDSSSNSASLTISGLKTEDAATYYCQTYDPYSVVFGGGTKLEILRTVAAPSVFIFPPSDEQLKSGTASVVCLLNNFYPREAKVQWKVDNALQSGNSQESVTEQDSKDSTYSLSSTLTLSKADYEKHKVYACEVTHQGLSSPVTKSFNRGEC
notes: IgG1 Mab format
In the case of B19, the Kd in assay [1] is 24.7 nM; in assay [2], 2400 nM; in assay [3] it was 1300 nM; in assay [7], 0.044 nM.

B20: CAT-2200 designed Vlambda-Ckappa chimeric Mab, design 37 (E83A_D85T) (antibody, human IgG1, kappa)
heavy: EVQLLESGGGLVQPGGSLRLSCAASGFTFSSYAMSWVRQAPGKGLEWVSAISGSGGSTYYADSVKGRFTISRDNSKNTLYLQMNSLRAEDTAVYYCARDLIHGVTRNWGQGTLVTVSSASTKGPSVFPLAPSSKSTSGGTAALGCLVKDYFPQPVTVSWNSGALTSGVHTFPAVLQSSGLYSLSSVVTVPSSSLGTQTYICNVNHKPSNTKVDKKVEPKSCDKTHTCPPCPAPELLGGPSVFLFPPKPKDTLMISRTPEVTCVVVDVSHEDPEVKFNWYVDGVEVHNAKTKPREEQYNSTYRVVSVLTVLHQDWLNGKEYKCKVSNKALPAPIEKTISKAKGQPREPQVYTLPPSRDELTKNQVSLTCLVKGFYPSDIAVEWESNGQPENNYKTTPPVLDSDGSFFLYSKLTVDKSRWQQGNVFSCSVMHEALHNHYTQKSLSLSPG
light: B19 light with E108T, I109V
notes: IgG1 Mab format
Regarding B20, the Kd in assay [1] is 23.4 nM; in assay [2] it was 2400 nM; in assay [3], 1400 nM; in assay [7], 0.048 nM.

B21: CAT-2200 designed Vlambda-Ckappa chimeric Mab, design 34 (E83I_D85T_T105E_V106I) (antibody, human IgG1, kappa)
heavy: not shown
light: B19 light with A86I
notes: IgG1 Mab format
As to B21, the Kd in assay [7] was 0.053 nM.

B22: CAT-2200 designed Vlambda-Ckappa chimeric Mab, design 29 (E83V_D85T_T105E_V106I) (antibody, human IgG1, kappa)
heavy: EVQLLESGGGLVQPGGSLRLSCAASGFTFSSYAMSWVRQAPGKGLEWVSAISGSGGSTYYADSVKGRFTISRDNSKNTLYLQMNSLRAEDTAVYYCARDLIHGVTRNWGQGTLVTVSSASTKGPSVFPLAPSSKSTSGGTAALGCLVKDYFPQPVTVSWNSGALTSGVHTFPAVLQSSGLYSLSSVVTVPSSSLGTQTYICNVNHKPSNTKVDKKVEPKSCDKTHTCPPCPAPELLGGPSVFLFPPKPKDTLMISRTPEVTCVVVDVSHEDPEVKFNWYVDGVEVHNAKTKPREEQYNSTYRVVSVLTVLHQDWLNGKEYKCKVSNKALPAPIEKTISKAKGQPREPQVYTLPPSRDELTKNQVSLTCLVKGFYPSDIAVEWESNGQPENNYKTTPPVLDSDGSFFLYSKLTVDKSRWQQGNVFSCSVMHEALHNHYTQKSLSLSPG
light: B19 light with A86V
notes: IgG1 Mab format
Regarding B22, the Kd was determined as 27.9 nM in assay [1], 2300 nM in assay [2], 1300 nM in assay [3] and 0.049 nM in assay [7].

B23: CAT-2200 Vlambda-Ckappa chimeric Mab (antibody, human IgG1, kappa)
heavy: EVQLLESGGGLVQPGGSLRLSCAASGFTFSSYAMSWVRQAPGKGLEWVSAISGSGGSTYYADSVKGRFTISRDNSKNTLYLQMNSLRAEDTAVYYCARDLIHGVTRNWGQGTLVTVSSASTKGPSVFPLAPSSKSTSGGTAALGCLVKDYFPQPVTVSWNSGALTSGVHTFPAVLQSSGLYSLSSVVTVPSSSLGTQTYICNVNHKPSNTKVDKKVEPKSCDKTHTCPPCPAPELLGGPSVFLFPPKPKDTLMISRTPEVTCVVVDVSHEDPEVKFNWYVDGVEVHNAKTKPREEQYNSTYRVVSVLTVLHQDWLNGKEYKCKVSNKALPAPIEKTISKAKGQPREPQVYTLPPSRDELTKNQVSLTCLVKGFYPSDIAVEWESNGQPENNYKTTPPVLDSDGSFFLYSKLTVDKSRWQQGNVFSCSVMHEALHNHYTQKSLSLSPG
light: B19 light with A86E, T88D, E108T, I109V
notes: as for B7
Consider B23, for which the results for the Kd in assay [1], in assay [2] and in assay [7] were 14.3 nM, 2500 nM and 0.042 nM, respectively.

The Kd is the equilibrium constant for the complex coming apart.
